Molecular target: KREPA2 αH1 group mutant of the negatively charged glutamic and aspartic acid residues (to alanine) (T. brucei)
Experiment: pull-down

“kinetoplastid RNA editing ligase 1 (KREL1) full-length (51-469) (enzyme)” gave a decrease in binding efficiency against the wild type of 75%.

Reference: paper PMC9891256
